This passage reports protein stability index results from the supplement of paper PMC10724198.

± gives the standard deviation of the averaged measurements.

For the series, the system named is Saccharomyces cerevisiae. As to the kind of experiment: protein stability index of tFT-peptide fusion (C-terminal peptide) (PSI (0-1 scale)); higher = more stable (slower turnover). The note with it: temperature: 30 C. The method, then:
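MPS profiling in S. cerevisiae of the yeast C-terminome library: the last 12 aa of each annotated ORF are fused to the C-terminus of a sfGFP-mCherry timer, after a GGGS linker. Cells are FACS-sorted into 8 mCherry/sfGFP bins and deep-sequenced. PSI runs from 0 (unstable) to 1 (stable); wild type and das1Δ backgrounds, two technical replicates each.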

Where [1] appears, read: genetic background: das1 deletion.

Consider RSVYDYNGSLKV [CSR1 C-terminal 12 aa], for which the protein stability index was 0.686 ± 0.012 under setting [1] and 0.691 ± 0.015 (genetic background: wild type).

Consider RTKGQKWFDGLM [NAT2 C-terminal 12 aa], for which the protein stability index worked out at 0.6819 ± 0.0031 under setting [1] and 0.698 ± 0.016 (genetic background: wild type).

Turning to RTSPIDNVSNTH [NUT2 C-terminal 12 aa], the protein stability index under setting [1] worked out at 0.693 ± 0.0018 and the protein stability index (genetic background: wild type) is 0.693 ± 0.046.

For the sequence RYNDERLGPVQG [IRC24 C-terminal 12 aa], the protein stability index reads like this: under setting [1], 0.696 ± 0.021; (genetic background: wild type) 0.684 ± 0.043.

In the case of “SAGSLEYTARYM [YML012C-A C-terminal 12 aa]”, the protein stability index turned out to be 0.693 ± 0.036 under setting [1] and 0.671 ± 0.0079 (genetic background: wild type).

Regarding SANGYKRRRYGN [YHC1 C-terminal 12 aa], the protein stability index by setting is: under setting [1], 0.716 ± 0.019; (genetic background: wild type) 0.732 ± 0.055.

SASGKKKINKNN [ELO1 C-terminal 12 aa] came in with a protein stability index under setting [1] of 0.6991 ± 0.0036 and a protein stability index (genetic background: wild type) of 0.723 ± 0.042.

Regarding SDDNNDENMDLD [SSE2 C-terminal 12 aa], the protein stability index by setting is: under setting [1], 0.694 ± 0.014; (genetic background: wild type) 0.663 ± 0.018.

Take SDDQILREFLYS [IRE1 C-terminal 12 aa]: the protein stability index turned out to be 0.726 ± 0.004 under setting [1] and 0.7 ± 0.025 (genetic background: wild type).

On to SDISDLDDLGFL [RPN3 C-terminal 12 aa], for which the protein stability index reads like this: under setting [1], 0.7213 ± 0.0065; (genetic background: wild type) 0.679 ± 0.028.

Regarding SDLQKMLNKRKS [CWC24 C-terminal 12 aa], the protein stability index was 0.69 ± 0.025 under setting [1] and 0.682 ± 0.0099 (genetic background: wild type).

In the case of SDMYDSKRLLYV [YPL035C C-terminal 12 aa], the protein stability index by setting is: under setting [1], 0.652 ± 0.033; (genetic background: wild type) 0.537 ± 0.034.

On to SELENKFSNQES [FPY1 C-terminal 12 aa], for which the protein stability index by setting is: under setting [1], 0.7048 ± 0.0039; (genetic background: wild type) 0.735 ± 0.053.

SETFATPTPNNR [SPC42 C-terminal 12 aa]: the protein stability index runs as follows: under setting [1], 0.718 ± 0.022; (genetic background: wild type) 0.725 ± 0.01.

In the case of SFALVFKISAEV [YAR053W C-terminal 12 aa], the protein stability index turned out to be 0.448 ± 0.046 under setting [1] and 0.489 ± 0.022 (genetic background: wild type).

Consider SFDDGRVKRQRT [IOC3 C-terminal 12 aa], for which the protein stability index was determined as 0.69 ± 0.014 under setting [1] and 0.715 ± 0.075 (genetic background: wild type).

Consider SFMSYSCDMPTP [YCL022C C-terminal 12 aa], for which the protein stability index was 0.7225 ± 0.0042 under setting [1] and 0.727 ± 0.071 (genetic background: wild type).

Take SFNFDHFDHFDL [YIL054W C-terminal 12 aa]: the protein stability index runs as follows: under setting [1], 0.733 ± 0.019; (genetic background: wild type) 0.743 ± 0.014.

In the case of SGGWDRSIKLWN [PRP4 C-terminal 12 aa], the protein stability index worked out at 0.711 ± 0.01 under setting [1] and 0.681 ± 0.026 (genetic background: wild type).

For the sequence SGNYFFLDNTGI [RLI1 C-terminal 12 aa], the protein stability index is 0.718 ± 0.015 under setting [1] and 0.754 ± 0.056 (genetic background: wild type).

Take SGSGVHVIKRVG [ESS1 C-terminal 12 aa]: the protein stability index was 0.701 ± 0.0075 under setting [1] and 0.65 ± 0.019 (genetic background: wild type).

For SGWSNFEDFFSR [YKL222C C-terminal 12 aa], the protein stability index stood at 0.744 ± 0.021 under setting [1] and 0.77 ± 0.019 (genetic background: wild type).

Regarding SIKLTFGFGAVL [AHA1 C-terminal 12 aa], the protein stability index under setting [1] amounted to 0.6981 ± 0.0022 and the protein stability index (genetic background: wild type) stood at 0.711 ± 0.0087.

With SIQWIWRYSFVY [YIR020C C-terminal 12 aa], the protein stability index runs as follows: under setting [1], 0.464 ± 0.0072; (genetic background: wild type) 0.44 ± 0.025.

The sequence SKDLGNVLTNLL [ESF2 C-terminal 12 aa] gave a protein stability index under setting [1] of 0.6902 ± 0.005 and a protein stability index (genetic background: wild type) of 0.679 ± 0.035.

The sequence SKFIEKFQDIVS [MED1 C-terminal 12 aa] returned a protein stability index under setting [1] of 0.701 ± 0.014 and a protein stability index (genetic background: wild type) of 0.712 ± 0.018.

For the sequence SKKNVLYQKKNN [RTT107 C-terminal 12 aa], the protein stability index was determined as 0.69 ± 0.0099 under setting [1] and 0.286 ± 0.014 (genetic background: wild type).

Take SKLVKEYSVELR [MSF1 C-terminal 12 aa]: the protein stability index came out at 0.687 ± 0.019 under setting [1] and 0.663 ± 0.05 (genetic background: wild type).

As to SKNTREEKPTEL [MMM1 C-terminal 12 aa], the protein stability index by setting is: under setting [1], 0.698 ± 0.011; (genetic background: wild type) 0.688 ± 0.018.

Turning to SKPALGTCLYEQ [GAL3 C-terminal 12 aa], the protein stability index runs as follows: under setting [1], 0.676 ± 0.0096; (genetic background: wild type) 0.665 ± 0.03.

Consider “SLEKLEMSKYGL [YKL033W-A C-terminal 12 aa]”, for which the protein stability index was 0.6995 ± 0.0021 under setting [1] and 0.6694 ± 0.004 (genetic background: wild type).

SLRSFFVKQKVL [ERP6 C-terminal 12 aa]: the protein stability index runs as follows: under setting [1], 0.641 ± 0.0083; (genetic background: wild type) 0.185 ± 0.025.

Take SLSARKINMRKV [KRE9 C-terminal 12 aa]: the protein stability index runs as follows: under setting [1], 0.705 ± 0.033; (genetic background: wild type) 0.644 ± 0.014.

For the sequence SMALRTVSILEN [YGL152C C-terminal 12 aa], the protein stability index is, setting by setting: under setting [1], 0.683 ± 0.011; (genetic background: wild type) 0.649 ± 0.025.

Turning to SMKYPHTAALVR [YLR111W C-terminal 12 aa], the protein stability index was determined as 0.578 ± 0.027 under setting [1] and 0.653 ± 0.072 (genetic background: wild type).

In the case of SNGFKEWRKSLK [RAI1 C-terminal 12 aa], the protein stability index runs as follows: under setting [1], 0.6824 ± 0.0012; (genetic background: wild type) 0.67 ± 0.02.

SNSSSSQKAAKE [HST2 C-terminal 12 aa]: the protein stability index under setting [1] was determined as 0.71 ± 0.033 and the protein stability index (genetic background: wild type) turned out to be 0.651 ± 0.024.

Consider SNWARIFFCHHD [YDL186W C-terminal 12 aa], for which the protein stability index came to 0.75 ± 0.015 under setting [1] and 0.713 ± 0.028 (genetic background: wild type).

In the case of SPSPKPQHRRKR [ELO2 C-terminal 12 aa], the protein stability index is, setting by setting: under setting [1], 0.734 ± 0.025; (genetic background: wild type) 0.704 ± 0.029.

On to SQLLLFGFGAMV [MDM32 C-terminal 12 aa], for which the protein stability index under setting [1] stood at 0.6998 ± 0.0031 and the protein stability index (genetic background: wild type) amounted to 0.705 ± 0.031.

On to “SQSCPFFPLMDD [YDR246W-A C-terminal 12 aa]”, for which the protein stability index was 0.738 ± 0.012 under setting [1] and 0.7463 ± 0.0073 (genetic background: wild type).

As to SQSKIKAKIRPE [YJL193W C-terminal 12 aa], the protein stability index is 0.7134 ± 0.0044 under setting [1] and 0.666 ± 0.011 (genetic background: wild type).

SRFLKRKSHHDK [SEC1 C-terminal 12 aa]: the protein stability index runs as follows: under setting [1], 0.687 ± 0.0091; (genetic background: wild type) 0.723 ± 0.049.

Consider SRIELELKNIGL [ECM29 C-terminal 12 aa], for which the protein stability index by setting is: under setting [1], 0.684 ± 0.0096; (genetic background: wild type) 0.762 ± 0.0041.

As for SRILQYKCIFTY [ARP8 C-terminal 12 aa], the protein stability index by setting is: under setting [1], 0.517 ± 0.023; (genetic background: wild type) 0.2402 ± 0.0014.

Take SRTPPARRQRHR [CWC22 C-terminal 12 aa]: the protein stability index was found to be 0.7133 ± 0.0015 under setting [1] and 0.671 ± 0.012 (genetic background: wild type).

As to SSDEEENEKELP [PWP2 C-terminal 12 aa], the protein stability index reads like this: under setting [1], 0.67854 ± 0.00042; (genetic background: wild type) 0.705 ± 0.039.

As to SSKAIQGNFDDL [SPB4 C-terminal 12 aa], the protein stability index under setting [1] was 0.704 ± 0.018 and the protein stability index (genetic background: wild type) came to 0.714 ± 0.047.

Turning to SSLDEVLAKDKD [MIN8 C-terminal 12 aa], the protein stability index reads like this: under setting [1], 0.736 ± 0.018; (genetic background: wild type) 0.6795 ± 0.0061.

With SSSSFISYPPQR [MAD3 C-terminal 12 aa], the protein stability index by setting is: under setting [1], 0.728 ± 0.019; (genetic background: wild type) 0.6977 ± 0.0019.
